According to paper PMC5014761:

Biological target: Δ25 FLAG-MRNIP (human) (UniProt Q6NTE8)
Test: co-IP; 1 mg whole-cell extract (20 mM Tris-HCl pH 7.5, 150 mM NaCl, 1% Triton X-100, 1 mM DTT, 1 mM EDTA, Benzonase) with M2 anti-FLAG beads 16 hr at 4°C; eluted with FLAG peptide or by heating; immunoblot; HEK293 stable, tetracycline-inducible or transiently transfected cells; in Figure 2D cells exposed to the indicated doses of IR

Sequence of UniProt Q6NTE8 (Q6NTE8 whole entry, stated change not applied): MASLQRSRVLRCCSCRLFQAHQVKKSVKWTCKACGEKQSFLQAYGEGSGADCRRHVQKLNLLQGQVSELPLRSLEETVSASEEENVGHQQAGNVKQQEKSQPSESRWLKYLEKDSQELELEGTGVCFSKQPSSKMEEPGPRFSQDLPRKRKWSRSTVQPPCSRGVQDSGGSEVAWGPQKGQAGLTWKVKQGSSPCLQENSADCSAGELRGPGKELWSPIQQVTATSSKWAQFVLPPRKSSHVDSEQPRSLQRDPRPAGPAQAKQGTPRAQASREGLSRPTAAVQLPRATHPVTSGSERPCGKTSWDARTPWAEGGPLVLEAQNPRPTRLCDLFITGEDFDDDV

Question: With the MRN complex as the substance, how does the percent reduced binding compared to WT MRNIP read?
Answer: 50 to 70%
